# Article PMC9482650, “Quantitative fragmentomics allow affinity mapping of interactomes” (Nature Communications, 2022)
# T1: PCLO, Q9Y6V0
# T1 sequence (Q9Y6V0 4491-4600, limits assumed, looked up): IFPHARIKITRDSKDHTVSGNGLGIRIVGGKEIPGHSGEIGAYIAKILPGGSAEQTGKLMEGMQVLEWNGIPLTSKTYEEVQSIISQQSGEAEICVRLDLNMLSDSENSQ
# T2: MPP7, Q5T2T1
# T2 sequence (Q5T2T1 134-230, limits assumed, looked up): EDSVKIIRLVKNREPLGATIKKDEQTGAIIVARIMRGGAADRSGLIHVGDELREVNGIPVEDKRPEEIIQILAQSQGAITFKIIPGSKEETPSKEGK
# T3: PDZRN3_1, Q9UPQ7
# T3 sequence (Q9UPQ7 244-349, limits assumed, looked up): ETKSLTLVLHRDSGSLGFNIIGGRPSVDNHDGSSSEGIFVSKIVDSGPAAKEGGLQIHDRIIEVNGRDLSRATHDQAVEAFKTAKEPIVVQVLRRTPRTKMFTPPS
# T4: LIN7A, O14910
# T4 sequence (O14910 103-200, limits assumed, looked up): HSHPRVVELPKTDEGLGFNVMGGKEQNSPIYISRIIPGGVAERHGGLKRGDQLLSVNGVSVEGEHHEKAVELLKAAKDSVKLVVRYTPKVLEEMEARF
# T5: PTPN13_1, Q12923
# T5 sequence (Q12923 1088-1188, limits assumed, looked up): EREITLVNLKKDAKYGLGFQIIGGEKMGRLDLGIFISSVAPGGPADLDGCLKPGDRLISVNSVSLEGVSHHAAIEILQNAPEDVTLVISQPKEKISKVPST
# T6: GRIP1_5, Q9Y3R0
# T6 sequence (Q9Y3R0 568-668, limits assumed, looked up): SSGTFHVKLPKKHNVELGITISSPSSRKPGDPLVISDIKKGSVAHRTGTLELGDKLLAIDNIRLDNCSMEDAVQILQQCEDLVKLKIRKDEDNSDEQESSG
# T7: GRIP1_7, Q9Y3R0
# T7 sequence (Q9Y3R0 999-1096, limits assumed, looked up): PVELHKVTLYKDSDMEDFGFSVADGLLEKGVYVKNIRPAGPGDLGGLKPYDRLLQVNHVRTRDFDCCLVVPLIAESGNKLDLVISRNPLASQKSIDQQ
# T8: MPP6, Q9NZW5
# T8 sequence (Q9NZW5 125-219, limits assumed, looked up): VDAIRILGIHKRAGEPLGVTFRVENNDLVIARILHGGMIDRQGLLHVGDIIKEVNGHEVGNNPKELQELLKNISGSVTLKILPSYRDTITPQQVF
# T9: SYNJ2BP, P57105
# T9 sequence (P57105 8-110, limits assumed, looked up): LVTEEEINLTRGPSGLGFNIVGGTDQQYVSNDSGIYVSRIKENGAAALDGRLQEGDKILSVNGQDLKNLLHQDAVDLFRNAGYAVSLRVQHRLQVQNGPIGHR
# T10: ARHGEF11, O15085
# T10 sequence (O15085 42-136, limits assumed, looked up): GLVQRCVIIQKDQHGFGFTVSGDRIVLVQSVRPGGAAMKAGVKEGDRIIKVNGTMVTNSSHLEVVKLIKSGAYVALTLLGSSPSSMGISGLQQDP
# Target: MAGI2_5, Q86UL8
# Assay: holdup assay
# Design: key: below the threshold = too weak to quantify, mostly under pKd 3.1 to 4
# Details: plain residues with an end cap or a label only (N-terminal biotin on a linker: ado-ado)
# Sequence of MAGI2_5, Q86UL8 (Q86UL8 915-1017): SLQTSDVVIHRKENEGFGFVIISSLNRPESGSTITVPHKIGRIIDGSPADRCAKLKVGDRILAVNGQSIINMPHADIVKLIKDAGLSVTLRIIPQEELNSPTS
row,pKd,Binder
1,3.6,"IKLETKKTKL [SLC15A2, Q16348]"
2,below the threshold,"GQNMTVSVVI [PRLHR, P49683]"

# Target: T1, PCLO, Q9Y6V0
# Assay: holdup assay
# Design: key: below the threshold = too weak to quantify, mostly under pKd 3.1 to 4
# Details: plain residues with an end cap or a label only (N-terminal biotin on a linker: ado-ado)
row,pKd,Binder
1,below the threshold,"IKLETKKTKL [SLC15A2, Q16348]"
2,below the threshold,"GQNMTVSVVI [PRLHR, P49683]"

# Target: GRID2IP_1, A4D2P6
# Assay: holdup assay
# Design: key: below the threshold = too weak to quantify, mostly under pKd 3.1 to 4
# Details: plain residues with an end cap or a label only (N-terminal biotin on a linker: ado-ado)
# Sequence of GRID2IP_1, A4D2P6 (A4D2P6 1-87): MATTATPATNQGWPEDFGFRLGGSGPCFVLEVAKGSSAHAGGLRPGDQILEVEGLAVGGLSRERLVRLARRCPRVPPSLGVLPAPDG
row,pKd,Binder
1,below the threshold,"IKLETKKTKL [SLC15A2, Q16348]"
2,below the threshold,"GQNMTVSVVI [PRLHR, P49683]"

# Target: MAGI1_1, Q96QZ7
# Assay: holdup assay
# Design: key: below the threshold = too weak to quantify, mostly under pKd 3.1 to 4
# Details: plain residues with an end cap or a label only (N-terminal biotin on a linker: ado-ado)
# Sequence of MAGI1_1, Q96QZ7 (Q96QZ7 1-106): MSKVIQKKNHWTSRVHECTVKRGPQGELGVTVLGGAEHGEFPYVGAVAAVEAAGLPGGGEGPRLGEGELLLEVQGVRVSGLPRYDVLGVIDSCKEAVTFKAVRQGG
row,pKd,Binder
1,below the threshold,"IKLETKKTKL [SLC15A2, Q16348]"
2,4.22,"GQNMTVSVVI [PRLHR, P49683]"

# Target: GIPC2, Q8TF65
# Assay: holdup assay
# Design: key: below the threshold = too weak to quantify, mostly under pKd 3.1 to 4
# Details: plain residues with an end cap or a label only (N-terminal biotin on a linker: ado-ado)
# Sequence of GIPC2, Q8TF65 (Q8TF65 112-203): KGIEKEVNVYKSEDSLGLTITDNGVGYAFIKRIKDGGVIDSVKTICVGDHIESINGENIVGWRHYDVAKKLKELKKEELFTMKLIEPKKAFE
row,pKd,Binder
1,below the threshold,"IKLETKKTKL [SLC15A2, Q16348]"
2,below the threshold,"GQNMTVSVVI [PRLHR, P49683]"

# Target: Inadl_4, Q8NI35
# Assay: holdup assay
# Design: key: below the threshold = too weak to quantify, mostly under pKd 3.1 to 4
# Details: plain residues with an end cap or a label only (N-terminal biotin on a linker: ado-ado)
# Sequence of Inadl_4, Q8NI35 (Q8NI35 547-651): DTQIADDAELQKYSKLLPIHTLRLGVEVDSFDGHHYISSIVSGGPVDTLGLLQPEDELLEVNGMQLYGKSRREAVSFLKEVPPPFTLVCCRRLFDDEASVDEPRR
row,pKd,Binder
1,below the threshold,"IKLETKKTKL [SLC15A2, Q16348]"
2,below the threshold,"GQNMTVSVVI [PRLHR, P49683]"

# Target: MAGI1_2, Q96QZ7
# Assay: holdup assay
# Design: key: below the threshold = too weak to quantify, mostly under pKd 3.1 to 4
# Details: plain residues with an end cap or a label only (N-terminal biotin on a linker: ado-ado)
# Sequence of MAGI1_2, Q96QZ7 (Q96QZ7 456-580): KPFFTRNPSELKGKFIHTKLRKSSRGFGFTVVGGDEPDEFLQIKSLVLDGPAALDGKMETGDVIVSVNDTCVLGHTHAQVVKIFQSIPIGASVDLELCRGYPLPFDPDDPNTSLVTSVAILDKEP
row,pKd,Binder
1,3.58,"IKLETKKTKL [SLC15A2, Q16348]"
2,below the threshold,"GQNMTVSVVI [PRLHR, P49683]"

# Target: T2, MPP7, Q5T2T1
# Assay: holdup assay
# Design: key: below the threshold = too weak to quantify, mostly under pKd 3.1 to 4
# Details: plain residues with an end cap or a label only (N-terminal biotin on a linker: ado-ado)
row,pKd,Binder
1,below the threshold,"IKLETKKTKL [SLC15A2, Q16348]"
2,below the threshold,"GQNMTVSVVI [PRLHR, P49683]"

# Target: T3, PDZRN3_1, Q9UPQ7
# Assay: holdup assay
# Design: key: below the threshold = too weak to quantify, mostly under pKd 3.1 to 4
# Details: plain residues with an end cap or a label only (N-terminal biotin on a linker: ado-ado)
row,pKd,Binder
1,below the threshold,"IKLETKKTKL [SLC15A2, Q16348]"
2,below the threshold,"GQNMTVSVVI [PRLHR, P49683]"

# Target: T4, LIN7A, O14910
# Assay: holdup assay
# Design: key: below the threshold = too weak to quantify, mostly under pKd 3.1 to 4
# Details: plain residues with an end cap or a label only (N-terminal biotin on a linker: ado-ado)
row,pKd,Binder
1,below the threshold,"IKLETKKTKL [SLC15A2, Q16348]"
2,below the threshold,"GQNMTVSVVI [PRLHR, P49683]"

# Target: T5, PTPN13_1, Q12923
# Assay: holdup assay
# Design: key: below the threshold = too weak to quantify, mostly under pKd 3.1 to 4
# Details: plain residues with an end cap or a label only (N-terminal biotin on a linker: ado-ado)
row,pKd,Binder
1,3.56,"IKLETKKTKL [SLC15A2, Q16348]"
2,below the threshold,"GQNMTVSVVI [PRLHR, P49683]"

# Target: GRASP, Q7Z6J2
# Assay: holdup assay
# Design: key: below the threshold = too weak to quantify, mostly under pKd 3.1 to 4
# Details: plain residues with an end cap or a label only (N-terminal biotin on a linker: ado-ado)
# Sequence of GRASP, Q7Z6J2 (Q7Z6J2 96-193): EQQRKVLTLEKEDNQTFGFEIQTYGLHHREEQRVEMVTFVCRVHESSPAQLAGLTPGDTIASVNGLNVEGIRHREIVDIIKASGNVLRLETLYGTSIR
row,pKd,Binder
1,4.42,"IKLETKKTKL [SLC15A2, Q16348]"
2,below the threshold,"GQNMTVSVVI [PRLHR, P49683]"

# Target: SCRIB_2, Q14160
# Assay: holdup assay
# Design: key: below the threshold = too weak to quantify, mostly under pKd 3.1 to 4
# Details: plain residues with an end cap or a label only (N-terminal biotin on a linker: ado-ado)
# Sequence of SCRIB_2, Q14160 (Q14160 857-960): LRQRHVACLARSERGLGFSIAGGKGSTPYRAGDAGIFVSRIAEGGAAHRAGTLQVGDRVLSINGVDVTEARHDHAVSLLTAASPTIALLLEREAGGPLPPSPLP
row,pKd,Binder
1,below the threshold,"IKLETKKTKL [SLC15A2, Q16348]"
2,below the threshold,"GQNMTVSVVI [PRLHR, P49683]"

# Target: GRIP2_3, Q9C0E4
# Assay: holdup assay
# Design: key: below the threshold = too weak to quantify, mostly under pKd 3.1 to 4
# Details: plain residues with an end cap or a label only (N-terminal biotin on a linker: ado-ado)
# Sequence of GRIP2_3, Q9C0E4 (Q9C0E4 238-339): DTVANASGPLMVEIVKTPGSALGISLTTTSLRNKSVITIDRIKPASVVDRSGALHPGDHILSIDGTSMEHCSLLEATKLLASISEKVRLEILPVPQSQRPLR
row,pKd,Binder
1,below the threshold,"IKLETKKTKL [SLC15A2, Q16348]"
2,below the threshold,"GQNMTVSVVI [PRLHR, P49683]"

# Target: MAST2, Q6P0Q8
# Assay: holdup assay
# Design: key: below the threshold = too weak to quantify, mostly under pKd 3.1 to 4
# Details: plain residues with an end cap or a label only (N-terminal biotin on a linker: ado-ado)
# Sequence of MAST2, Q6P0Q8 (Q6P0Q8 1099-1202): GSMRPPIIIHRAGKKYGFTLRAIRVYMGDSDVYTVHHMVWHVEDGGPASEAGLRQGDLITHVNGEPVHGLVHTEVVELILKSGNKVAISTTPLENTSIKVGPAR
row,pKd,Binder
1,5.56,"IKLETKKTKL [SLC15A2, Q16348]"
2,below the threshold,"GQNMTVSVVI [PRLHR, P49683]"

# Target: NHERF4_2, Q86UT5
# Assay: holdup assay
# Design: key: below the threshold = too weak to quantify, mostly under pKd 3.1 to 4
# Details: plain residues with an end cap or a label only (N-terminal biotin on a linker: ado-ado)
# Sequence of NHERF4_2, Q86UT5 (Q86UT5 220-308): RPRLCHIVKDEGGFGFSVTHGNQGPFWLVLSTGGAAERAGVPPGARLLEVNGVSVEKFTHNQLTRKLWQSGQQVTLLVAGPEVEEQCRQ
row,pKd,Binder
1,3.63,"IKLETKKTKL [SLC15A2, Q16348]"
2,below the threshold,"GQNMTVSVVI [PRLHR, P49683]"

# Target: T6, GRIP1_5, Q9Y3R0
# Assay: holdup assay
# Design: key: below the threshold = too weak to quantify, mostly under pKd 3.1 to 4
# Details: plain residues with an end cap or a label only (N-terminal biotin on a linker: ado-ado)
row,pKd,Binder
1,below the threshold,"IKLETKKTKL [SLC15A2, Q16348]"
2,below the threshold,"GQNMTVSVVI [PRLHR, P49683]"

# Target: AHNAK1, Q09666
# Assay: holdup assay
# Design: key: below the threshold = too weak to quantify, mostly under pKd 3.1 to 4
# Details: plain residues with an end cap or a label only (N-terminal biotin on a linker: ado-ado)
# Sequence of AHNAK1, Q09666 (Q09666 4-100): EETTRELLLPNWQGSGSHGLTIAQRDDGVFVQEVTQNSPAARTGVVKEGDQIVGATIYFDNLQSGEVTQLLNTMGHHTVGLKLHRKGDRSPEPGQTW
row,pKd,Binder
1,below the threshold,"IKLETKKTKL [SLC15A2, Q16348]"
2,below the threshold,"GQNMTVSVVI [PRLHR, P49683]"

# Target: HTRA1, Q92743
# Assay: holdup assay
# Design: key: below the threshold = too weak to quantify, mostly under pKd 3.1 to 4
# Details: plain residues with an end cap or a label only (N-terminal biotin on a linker: ado-ado)
# Sequence of HTRA1, Q92743 (Q92743 360-477): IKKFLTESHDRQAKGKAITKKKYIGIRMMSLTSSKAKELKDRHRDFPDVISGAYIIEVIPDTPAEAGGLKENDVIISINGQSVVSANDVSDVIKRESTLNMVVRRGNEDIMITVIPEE
row,pKd,Binder
1,below the threshold,"IKLETKKTKL [SLC15A2, Q16348]"
2,4.82,"GQNMTVSVVI [PRLHR, P49683]"

# Target: T7, GRIP1_7, Q9Y3R0
# Assay: holdup assay
# Design: key: below the threshold = too weak to quantify, mostly under pKd 3.1 to 4
# Details: plain residues with an end cap or a label only (N-terminal biotin on a linker: ado-ado)
row,pKd,Binder
1,below the threshold,"IKLETKKTKL [SLC15A2, Q16348]"
2,below the threshold,"GQNMTVSVVI [PRLHR, P49683]"

# Target: MAGI2_3, Q86UL8
# Assay: holdup assay
# Design: key: below the threshold = too weak to quantify, mostly under pKd 3.1 to 4
# Details: plain residues with an end cap or a label only (N-terminal biotin on a linker: ado-ado)
# Sequence of MAGI2_3, Q86UL8 (Q86UL8 600-682): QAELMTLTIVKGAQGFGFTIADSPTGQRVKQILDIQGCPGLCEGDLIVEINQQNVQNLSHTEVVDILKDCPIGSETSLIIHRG
row,pKd,Binder
1,3.6,"IKLETKKTKL [SLC15A2, Q16348]"
2,below the threshold,"GQNMTVSVVI [PRLHR, P49683]"

# Target: T8, MPP6, Q9NZW5
# Assay: holdup assay
# Design: key: below the threshold = too weak to quantify, mostly under pKd 3.1 to 4
# Details: plain residues with an end cap or a label only (N-terminal biotin on a linker: ado-ado)
row,pKd,Binder
1,below the threshold,"IKLETKKTKL [SLC15A2, Q16348]"
2,3.71,"GQNMTVSVVI [PRLHR, P49683]"

# Target: T9, SYNJ2BP, P57105
# Assay: holdup assay
# Design: key: below the threshold = too weak to quantify, mostly under pKd 3.1 to 4
# Details: plain residues with an end cap or a label only (N-terminal biotin on a linker: ado-ado)
row,pKd,Binder
1,below the threshold,"IKLETKKTKL [SLC15A2, Q16348]"
2,3.47,"GQNMTVSVVI [PRLHR, P49683]"

# Target: T10, ARHGEF11, O15085
# Assay: holdup assay
# Design: key: below the threshold = too weak to quantify, mostly under pKd 3.1 to 4
# Details: plain residues with an end cap or a label only (N-terminal biotin on a linker: ado-ado)
row,pKd,Binder
1,4.27,"IKLETKKTKL [SLC15A2, Q16348]"
2,4.94,"GQNMTVSVVI [PRLHR, P49683]"

# Target: DLG4_2, P78352
# Assay: holdup assay
# Design: key: below the threshold = too weak to quantify, mostly under pKd 3.1 to 4
# Details: plain residues with an end cap or a label only (N-terminal biotin on a linker: ado-ado)
# Sequence of DLG4_2, P78352 (P78352 155-259): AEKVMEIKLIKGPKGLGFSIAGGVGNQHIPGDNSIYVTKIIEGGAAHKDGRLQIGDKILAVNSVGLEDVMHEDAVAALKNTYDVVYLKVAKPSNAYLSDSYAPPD
row,pKd,Binder
1,3.87,"IKLETKKTKL [SLC15A2, Q16348]"
2,below the threshold,"GQNMTVSVVI [PRLHR, P49683]"

# Target: FRMPD2_1, Q68DX3
# Assay: holdup assay
# Design: key: below the threshold = too weak to quantify, mostly under pKd 3.1 to 4
# Details: plain residues with an end cap or a label only (N-terminal biotin on a linker: ado-ado)
# Sequence of FRMPD2_1, Q68DX3 (Q68DX3 770-861): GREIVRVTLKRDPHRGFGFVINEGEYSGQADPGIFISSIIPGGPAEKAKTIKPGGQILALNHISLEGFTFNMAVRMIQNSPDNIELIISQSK
row,pKd,Binder
1,below the threshold,"IKLETKKTKL [SLC15A2, Q16348]"
2,below the threshold,"GQNMTVSVVI [PRLHR, P49683]"

# Target: GRIP2_6, Q9C0E4
# Assay: holdup assay
# Design: key: below the threshold = too weak to quantify, mostly under pKd 3.1 to 4
# Details: plain residues with an end cap or a label only (N-terminal biotin on a linker: ado-ado)
# Sequence of GRIP2_6, Q9C0E4 (Q9C0E4 648-740): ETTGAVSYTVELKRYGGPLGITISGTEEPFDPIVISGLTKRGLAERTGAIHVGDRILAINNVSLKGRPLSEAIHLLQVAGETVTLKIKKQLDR
row,pKd,Binder
1,3.48,"IKLETKKTKL [SLC15A2, Q16348]"
2,4.15,"GQNMTVSVVI [PRLHR, P49683]"
